Measurements taken from patent US20260008848A1, “ANTI-NECTIN-4 ANTIBODY, AND ANTIBODY-DRUG CONJUGATE AND USE THEREOF” (Bio-Thera Solutions, Ltd., priority 2022, published 2026).

Legend:
[1] = system: T-47D cells; assay: Endocytosis assay by FACS (antibody remaining on cell surface); format: cell-based, human; settings: 10 μg/mL antibody
Experimental: The relative quantity of antibodies remaining on the cell surface after incubation at 37° C. for a certain period was detected by FACS to reflect the efficiency of endocytosis. The method is briefly described as follows: T-47D cells (human ductal breast carcinoma cells, sourced from the Cell Bank of the Chinese Academy of Sciences, Cat. No.: TCHu 87) were used. Each test antibody was adjusted to a concentration of 10 μg/mL and co-incubated with cells (at a density of 0.5×10^6 cells/mL) on ice for 1 h for binding. The cells were washed thrice with pre-cooled PBS and then incubated at 37° C. for 0 h, 2 h, and 4 h. The endocytosis reaction was terminated with 0.2% N3Na, and the cells were washed thrice with PBS. Subsequently, a PE-labeled anti-human Fc secondary antibody (Invitrogen 12-4998-82) was added, and the cells were incubated at 4° C. for 30 min. The red fluorescence signal was detected by a flow cytometer.

[2] = target: T1, human Nectin-4 extracellular antigen (Nectin-4-His) (Homo sapiens, UniProt Q96NY8); assay: Affinity measurement by BLI (Octet QKe, Protein A biosensor); format: binding
T1 construct: albumin signal peptide (replaces the native Nectin-4 signal peptide) (N); made in house
T1 sequence (Q96NY8 with tags, fused parts or gaps): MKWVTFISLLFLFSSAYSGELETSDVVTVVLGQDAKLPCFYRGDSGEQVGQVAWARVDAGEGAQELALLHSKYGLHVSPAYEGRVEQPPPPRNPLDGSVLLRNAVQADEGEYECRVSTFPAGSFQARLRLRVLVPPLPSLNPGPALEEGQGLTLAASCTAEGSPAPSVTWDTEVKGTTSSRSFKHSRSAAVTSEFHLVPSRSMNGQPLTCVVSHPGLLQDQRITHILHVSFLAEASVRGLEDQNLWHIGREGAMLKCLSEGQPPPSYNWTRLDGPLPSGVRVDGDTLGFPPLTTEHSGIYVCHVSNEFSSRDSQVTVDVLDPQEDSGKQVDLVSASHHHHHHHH
Experimental: (§1) The affinity of candidate antibodies (ASG-22 and ASG-AM) for the human Nectin-4 extracellular antigen was detected using the bio-layer interferometry (BLI) technology on the Octet platform (Fortebio, Octet QKe).
(§2) Antibodies were loaded onto a Protein A biosensor (Fortebio, 18-5010) at a concentration of 20 μg/mL with a loading time of 60 s. Nectin-4-His antigen concentrations were set at 200 nM, 100 nM, 50 nM, 25 nM, and 0 nM. The antigen association time was 180 s, and the dissociation time was 200 s. Data were then processed and analyzed using Acquisition 8.2 to give affinity constants (see Table 4).

[3] = target: T1, human Nectin-4 extracellular antigen (Nectin-4-His); assay: Affinity measurement by SPR (BIAcore T200, Protein A chip capture); format: binding; settings: 1:1 model fit
Experimental: (§3) The candidate antibodies (ASG-22 and ASG-AM) were analyzed for their affinity for the human Nectin-4 extracellular antigen using surface plasmon resonance (SPR) technology (BIAcore: GE Healthcare, T200).
(§4) The capture was conducted on a Protein A chip (Cat #29127556, GE Healthcare): Antibody dilutions ([…]) were directed through the experimental flow channels (Fc2 and Fc4) at a flow rate of 10 μL/min for 10 s. Then antigen Nectin-4-His (prepared from Example 1) dilutions at different concentrations (0 nM, 1.23 nM, 3.7 nM, 11.1 nM, 33.3 nM, and 100 nM) were sequentially introduced with the flow rate adjusted to 30 μL/min through the surfaces of the experimental flow channels (Fc2 and Fc4) and reference flow channels (Fc1 and Fc3) with 120 s of association and 180 s of dissociation. Finally, the chip regenerated in Glycine 1.5. Fitting and analysis were performed using BiaEvaluation 3.2, with a 1:1 model for the fitting.

[4] = system: T-47D cells; assay: Binding of antibody to T-47D cells by FACS; parameters: species or system human; settings: 3-fold dilutions from 100 nM, 4° C.
Experimental: (§5) The binding activity of antibody ASG-AM to T-47D cells (human ductal breast carcinoma cells, sourced from the Cell Bank of the Chinese Academy of Sciences, Cat. No.: TCHu 87) was detected by FACS and compared with that of the reference antibody ASG-22. The EC50 of the binding of candidate antibodies to the cells was analyzed using the four-parameter method. The method is briefly described as follows: T-47D cells were digested with pancreatin. Each candidate antibody was serially 3-fold diluted from 100 nM and co-incubated with T-47D cells at 4° C. for 0.5-1 h. Subsequently, a PE-labeled anti-human Fc secondary antibody (Invitrogen, 12-4998-82) was added. The signal intensity of the red fluorescence was detected by a flow cytometer. Graphpad Prism was used for plotting and calculating the EC50.

[5] = target: T2, human Nectin-4 extracellular antigen Nectin-4-His (human, UniProt Q96NY8 32-349); assay: BLI (Octet QKe), antibody loaded on Protein A biosensor, Nectin-4-His in solution
T2 construct: the secreted protein in the assay lacks the signal peptide
T2 sequence: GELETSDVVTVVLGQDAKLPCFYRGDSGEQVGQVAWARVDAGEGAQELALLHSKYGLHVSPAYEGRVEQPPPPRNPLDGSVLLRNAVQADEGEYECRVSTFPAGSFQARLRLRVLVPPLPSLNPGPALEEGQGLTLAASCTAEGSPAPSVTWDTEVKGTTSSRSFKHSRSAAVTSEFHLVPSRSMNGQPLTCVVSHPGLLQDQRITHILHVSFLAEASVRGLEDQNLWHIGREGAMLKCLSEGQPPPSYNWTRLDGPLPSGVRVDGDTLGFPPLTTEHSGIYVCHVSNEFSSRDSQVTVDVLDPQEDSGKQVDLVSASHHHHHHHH
Experimental: as §1, §2

[6] = target: T3, Nectin-4 on T-47D cells (human ductal breast carcinoma cells) (human, UniProt Q96NY8 32-510); assay: FACS on T-47D cells, antibody 3-fold diluted from 100 nM, PE-labeled anti-human Fc secondary antibody, four-parameter fit
T3 construct: whole, on cells; that is inferred from the antibodies' specificity
T3 sequence (looked up): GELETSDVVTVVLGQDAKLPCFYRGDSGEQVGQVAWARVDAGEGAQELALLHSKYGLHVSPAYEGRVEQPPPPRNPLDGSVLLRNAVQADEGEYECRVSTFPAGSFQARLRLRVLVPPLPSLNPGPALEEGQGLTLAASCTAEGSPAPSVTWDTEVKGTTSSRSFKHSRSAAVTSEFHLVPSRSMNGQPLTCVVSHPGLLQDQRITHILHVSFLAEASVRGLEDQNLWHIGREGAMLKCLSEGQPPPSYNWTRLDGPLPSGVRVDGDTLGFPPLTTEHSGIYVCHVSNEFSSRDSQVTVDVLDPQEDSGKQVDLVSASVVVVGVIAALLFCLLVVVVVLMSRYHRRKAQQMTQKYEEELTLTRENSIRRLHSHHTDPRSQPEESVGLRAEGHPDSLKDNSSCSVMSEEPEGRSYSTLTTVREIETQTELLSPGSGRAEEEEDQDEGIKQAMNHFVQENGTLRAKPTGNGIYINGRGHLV
Experimental: as §5, with “EC₅₀” for “EC50”, “EC₅₀.” for “EC50.”

[7] = target: T2, human Nectin-4 extracellular antigen …; assay: SPR (BIAcore T200), antibody captured on Protein A chip, Nectin-4-His as analyte, 1:1 fit
Experimental: as §3, §4

Question: For “ASG-22: reference anti-Nectin-4 antibody; heavy chain SEQ ID NO: 12, light chain SEQ ID NO: 17 (Table 2) [reference compound]”, which “red fluorescence signal at 0 h” value ([1]; 37° C. for 0 h) is on record?
Answer: 24098.3

Question: What about the “Endocytosis at 2 h” value ([1]; 37° C. for 2 h) of the same molecule?
Answer: 53.46%

Question: What about the “red fluorescence signal at 2 h” value ([1]; 37° C. for 2 h) of the same molecule?
Answer: 11216.0

Question: And the “Endocytosis at 4 h” value ([1]; 37° C. for 4 h)?
Answer: 74.97%

Question: What about the “red fluorescence signal at 4 h” value ([1]; 37° C. for 4 h) of the same molecule?
Answer: 6033

Question: And the Rmax [2]?
Answer: 0.5303

Question: What about the kdis [2] of the same molecule?
Answer: 0.00162 s⁻¹

Question: And the kon [2]?
Answer: 113000 M⁻¹ s⁻¹

Question: And the Ka [3]?
Answer: 606000 M⁻¹ s⁻¹

Question: And the Rmax [3]?
Answer: 164.2 RU

Question: What about the Kd ([3]; dissociation rate) of the same molecule?
Answer: 0.00523 s⁻¹

Question: And the “binding curves to T-47D cells” value [4]?
Answer: substantially consistent

B1: reference antibody ASG-22 (antibody, human IgG1, kappa, V domains shown)
VH: EVQLVESGGGLVQPGGSLRLSCAASGFTFSSYNMNWVRQAPGKGLEWVSYISSSSSTIYYADSVKGRFTISRDNAKNSLSLQMNSLRDEDTAVYYCARAYYYGMDVWGQGTLVTVSS
VL: DIQMTQSPSSVSASVGDRVTITCRASQGISGWLAWYQQKPGKAPKFLIYAASTLQSGVPSRFSGSGSGTDFTLTISSLQPEDFATYYCQQANSFPPTFGGGTKVEIKR
notes: Expressed in HEK293F cells
Question: B1 was tested. Which Kd [5] did it give?
Answer: 14.3 nM

Question: And the koff [5]?
Answer: 0.00162 s⁻¹

Question: What about the kon [5] of the same molecule?
Answer: 113000 M⁻¹ s⁻¹

Question: What about the EC50 [6] of the same molecule?
Answer: 0.752 nM

Question: And the Kd [7]?
Answer: 8.64 nM

Question: And the koff [7]?
Answer: 0.00523 s⁻¹

Question: And the kon [7]?
Answer: 606000 M⁻¹ s⁻¹

B2: anti-Nectin-4 antibody ASG-AM (antibody, human IgG1, kappa, V domains shown)
VH: B1 VH
VL: DIQMTQSPSSVSASVGDRVTITCRASQGISGWLAWYQQKPGKAPKFLIYAASTLQSGVPSRFSGSGSGTDFTLTISSLQPEDFATYYCQQAGPGWVFGQGTKVEIKR
notes: Expressed in HEK293F cells
Question: What does the source list for B2?
Answer: Kd [5]: 0.266 nM; koff [5]: 2.38e-05 s⁻¹; kon [5]: 89600 M⁻¹ s⁻¹; EC50 [6]: 0.726 nM; Kd [7]: 1.79 nM; koff [7]: 0.000535 s⁻¹; kon [7]: 298000 M⁻¹ s⁻¹
